Laboratory results taken from the supplement of paper PMC9732359.
± gives the uncertainty stated by the source.

Test: protein stability index of a GFP-peptide fusion (yeast GPS) (PSI 1-4); higher = more stable; sorted into four equal gates, so the index is relative within each strain
Method in brief: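 The protein stability index combines read frequencies across sorting gates, each weighted by its gate number and then summed. To obtain those frequencies, a pooled yeast library of GFP fusions to tiled 17-residue yeast protein peptides, on a plasmid also expressing Cherry, was grown to mid-log phase in leucine-free medium. The cells were sorted into four equal gates by GFP/Cherry ratio before plasmid amplification by PCR and Illumina sequencing.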

For VSKQLGNGLVDENKVEA [YAR002W/NUP60], the protein stability index (doa10∆) was 3.17 ± 0.082, the protein stability index (pdr5∆) was 3.02 ± 0.068 and the protein stability index (san1∆) was 3.38 ± 0.048. It also gave a protein stability index (ubr1∆) of 3.21 ± 0.049.

For KAKTTKKVVLRLECVKC [RPL42A], the protein stability index (doa10∆) was 1.64 ± 0.22, the protein stability index (pdr5∆) was 1.52 ± 0.17 and the protein stability index (ubr1∆) was 1.81 ± 0.065.

LRYYKNIWLNNKIINWE [NUT1] gave a protein stability index (doa10∆) of 3.56 ± 0.18, a protein stability index (pdr5∆) of 2.67 ± 0.087 and a protein stability index (san1∆) of 2.2 ± 0.22. It also gave a protein stability index (ubr1∆) of 3.39 ± 0.16.

GQLPQLPKLNLPKYQTI [SNF5] gave a protein stability index (doa10∆) of 2.78 ± 0.062, a protein stability index (pdr5∆) of 2.67 ± 0.055 and a protein stability index (san1∆) of 2.57 ± 0.074. The protein stability index (ubr1∆) was 2.71 ± 0.047.

For LKEILNVAKNMKTPSLT [RPO21], the protein stability index (doa10∆) was 3.33 ± 0.12, the protein stability index (pdr5∆) was 3.06 ± 0.11 and the protein stability index (san1∆) was 3.1 ± 0.072. The protein stability index (ubr1∆) was 3.47 ± 0.12.

Work on FDPFQAVSRSMTDIWNT [ECM29] yielded a protein stability index (doa10∆) of 2.81 ± 0.087, a protein stability index (pdr5∆) of 2.73 ± 0.07 and a protein stability index (san1∆) of 2.85 ± 0.062. For the same sequence, the protein stability index (ubr1∆) was 2.75 ± 0.071.

Sequence LAIDNMYILGMCVSKGN [YCG1] has a protein stability index (doa10∆) of 2.19 ± 0.069, a protein stability index (pdr5∆) of 2.02 ± 0.061 and a protein stability index (san1∆) of 2.27 ± 0.089. For the same sequence, the protein stability index (ubr1∆) was 2.42 ± 0.057.

PYAIIKGKARLGTLVNQ [RPL8B] gave a protein stability index (doa10∆) of 1.83 ± 0.058, a protein stability index (pdr5∆) of 1.99 ± 0.06 and a protein stability index (san1∆) of 1.28 ± 0.063. It also gave a protein stability index (ubr1∆) of 2 ± 0.053.

In the case of TKYERARILGTRALQIS [RPO26], the protein stability index (pdr5∆) is reported as 1.36 ± 0.24 and the protein stability index (ubr1∆) is reported as 1.21 ± 0.13.

SVEEVILERAYKKLDID [SNF2] gave a protein stability index (doa10∆) of 3.23 ± 0.16, a protein stability index (pdr5∆) of 3.07 ± 0.24 and a protein stability index (san1∆) of 2.95 ± 0.13.

Sequence PHTPVTRKGYIPSSKYA [YLR018C/POM34] has a protein stability index (doa10∆) of 3.15 ± 0.065, a protein stability index (pdr5∆) of 3.18 ± 0.089 and a protein stability index (san1∆) of 2.96 ± 0.082. It also gave a protein stability index (ubr1∆) of 3.07 ± 0.052.

ETGYMSRRLMKSLEDLS [RPO31] showed a protein stability index (doa10∆) of 2.45 ± 0.12, a protein stability index (pdr5∆) of 3.13 ± 0.25 and a protein stability index (san1∆) of 3.02 ± 0.15.

With VEEVIKLVRDSFTSATE [PRE7] the protein stability index (doa10∆) was 3.06 ± 0.078, the protein stability index (pdr5∆) was 3.33 ± 0.066 and the protein stability index (san1∆) was 3.18 ± 0.052. For the same sequence, the protein stability index (ubr1∆) was 3 ± 0.061.

Work on YQKEYETAERNIIQAKR [RPL7A] yielded a protein stability index (doa10∆) of 2.81 ± 0.25, a protein stability index (pdr5∆) of 2.75 ± 0.14 and a protein stability index (san1∆) of 1.94 ± 0.16.

With KKVLEIDFFKTDDSFED [BRN1] the protein stability index (doa10∆) was 2.09 ± 0.041, the protein stability index (pdr5∆) was 2.08 ± 0.055 and the protein stability index (san1∆) was 2.46 ± 0.058. It also gave a protein stability index (ubr1∆) of 2.18 ± 0.042.

Work on DEFKDITKEVTQVNILK [YIL149C/MLP2] yielded a protein stability index (doa10∆) of 3.14 ± 0.082, a protein stability index (pdr5∆) of 3.2 ± 0.075 and a protein stability index (san1∆) of 2.67 ± 0.14. The protein stability index (ubr1∆) was 3.3 ± 0.057.

For LKALSHHYNPKTKKLNL [BRR2], the protein stability index (doa10∆) was 2.46 ± 0.088, the protein stability index (pdr5∆) was 2.4 ± 0.086 and the protein stability index (san1∆) was 2.33 ± 0.11. It also gave a protein stability index (ubr1∆) of 2.69 ± 0.053.

TNYYLTTARNDLGVVFA [CSL4] showed a protein stability index (doa10∆) of 2.04 ± 0.066, a protein stability index (pdr5∆) of 2.39 ± 0.078 and a protein stability index (san1∆) of 2.51 ± 0.075. It also gave a protein stability index (ubr1∆) of 2.82 ± 0.072.

Work on YVKEKLEAVNSMIEKGG [RPN7] yielded a protein stability index (doa10∆) of 2.93 ± 0.14, a protein stability index (pdr5∆) of 2.98 ± 0.1 and a protein stability index (san1∆) of 2.77 ± 0.08. It also gave a protein stability index (ubr1∆) of 2.83 ± 0.06.

In the case of KNYDATDKPFSSTQDVI [CSI1], the protein stability index (doa10∆) is reported as 2.37 ± 0.13, the protein stability index (pdr5∆) is reported as 2.96 ± 0.1 and the protein stability index (san1∆) is reported as 2.85 ± 0.088. The protein stability index (ubr1∆) was 3.06 ± 0.086.

For YGNRAEQFLETDSDFAK [SRP68], the protein stability index (doa10∆) was 3.15 ± 0.12, the protein stability index (pdr5∆) was 2.99 ± 0.08 and the protein stability index (san1∆) was 3.26 ± 0.083. The protein stability index (ubr1∆) was 3.23 ± 0.065.

Work on IVVAMTGKDCVAIACDL [PUP3] yielded a protein stability index (doa10∆) of 1.38 ± 0.062, a protein stability index (pdr5∆) of 1.47 ± 0.07 and a protein stability index (san1∆) of 2.08 ± 0.066. It also gave a protein stability index (ubr1∆) of 2.31 ± 0.046.

Sequence KHGTYDKLDDDGLIAPG [RPB2] has a protein stability index (doa10∆) of 3.02 ± 0.21 and a protein stability index (pdr5∆) of 2.92 ± 0.24.

With AITHMIDALGTEFSKND [SCL1] the protein stability index (doa10∆) was 2.47 ± 0.069, the protein stability index (pdr5∆) was 2.54 ± 0.044 and the protein stability index (san1∆) was 2.7 ± 0.08. For the same sequence, the protein stability index (ubr1∆) was 2.61 ± 0.031.

Sequence MATLEELDAQTLPGDDE [RPT5] has a protein stability index (doa10∆) of 3.31 ± 0.12, a protein stability index (pdr5∆) of 3.28 ± 0.15 and a protein stability index (san1∆) of 3.35 ± 0.13. The protein stability index (ubr1∆) was 3.49 ± 0.13.

In the case of IHQYLFQEGVVVAKKDF [RPS10A], the protein stability index (doa10∆) is reported as 2.29 ± 0.068, the protein stability index (pdr5∆) is reported as 2.08 ± 0.071 and the protein stability index (san1∆) is reported as 1.93 ± 0.089. For the same sequence, the protein stability index (ubr1∆) was 2.04 ± 0.085.
